{"source": "paper PMC9636275", "about": "(Nature Communications, 2022)", "molecules": {"B1": {"name": "PrpE: propionate CoA synthetase (protein, UniProt P77495 1-628, looked up)", "Propionate--CoA ligase": "MSFSEFYQRSINEPEQFWAEQARRIDWQTPFTQTLDHSNPPFARWFCEGRTNLCHNAIDRWLEKQPEALALIAVSSETEEERTFTFRQLHDEVNAVASMLRSLGVQRGDRVLVYMPMIAEAHITLLACARIGAIHSVVFGGFASHSVAARIDDAKPVLIVSADAGARGGKIIPYKKLLDDAISQAQHQPRHVLLVDRGLAKMARVSGRDVDFASLRHQHIGARVPVAWLESNETSCILYTSGTTGKPKGVQRDVGGYAVALATSMDTIFGGKAGSVFFCASDIGWVVGHSYIVYAPLLAGMATIVYEGLPTWPDCGVWWTIVEKYQVSRMFSAPTAIRVLKKFPTAEIRKHDLSSLEVLYLAGEPLDEPTASWVSNTLDVPVIDNYWQTESGWPIMAIARGLDDRPTRLGSPGVPMYGYNVQLLNEVTGEPCGVNEKGMLVVEGPLPPGCIQTIWGDDGRFVKTYWSLFSRPVYATFDWGIRDADGYHFILGRTDDVINVAGHRLGTREIEESISSHPGVAEVAVVGVKDALKGQVAVAFVIPKESDSLEDRDVAHSQEKAIMALVDSQIGNFGRPAHVWFVSQLPKTRSGKMLRRTIQAICEGRDPGDLTTIDDPASLDQIRQAMEE"}, "B2": {"name": "YiaC: GNAT family protein; lysine lactylase (protein, UniProt P37664 1-146, looked up)", "Peptidyl-lysine …": "MIREAQRSELPAILELWLESTTWGHPFIKANYWRDCIPLVRDAYLANAQNWVWEEDGKLLGFVSIMEGRFLAAMFVAPKAVRRGIGKALMQYVQQRHPHLMLEVYQKNQPAINFYQAQGFHIVDCAWQDETQLPTWIMSWPVVQTL"}, "B3": {"name": "CobB: NAD-dependent deacylase; lysine delactylase (protein)", "chain": "MLSRRGHRLSRFRKNKRRLRERLRQRIFFRDKVVPEAMEKPRVLVLTGAGISAESGIRTFRAADGLWEEHRVEDVATPEGFDRDPELVQAFYNARRRQLQQPEIQPNAAHLALAKLQDALGDRFLLVTQNIDNLHERAGNTNVIHMHGELLKVRCSQSGQVLDWTGDVTPEDKCHCCQFPAPLRPHVVWFGEMPLGMDEIYMALSMADIFIAIGTSGHVYPAAGFVHEAKLHGAHTVELNLEPSQVGNEFAEKYYGPASQVVPEFVEKLLKGLKAGSIA", "modifications": "left off: His tag (from the vector pET28a and the Ni-NTA purification), end not stated, state not stated", "notes": "NAD-dependent deacylase; lysine delactylase"}}, "key": {"PrpE": {"tested_on": "PrpE", "assay": "In vitro assay for PrpE activity", "type": "biochemical, E. coli", "details": "result in words", "protocol": "This method was performed as described previously. In detail, the purified Acs or PrpE with a final concentration of 0.3 μM were added in the reaction buffer [50 mM HEPES, 10 mM MgCl2, 2.5 mM ATP, 0.5 mM HSCoA, 3 mM phosphoenolpyruvate, 0.1 mM NADH, 1 U pyruvate kinase, 1.5 U lactate dehydrogenase, 5 U myokinase, 10 mM DTT, and 0.2 mM organic acid substrate (acetate, lactate and propionate), PH 7.5] at 25 °C for 30 min. […] Each reaction was performed three biological repetitions.\nSamples dissolved in water were analyzed by an Orbitrap Exploris 480 (Thermo Scientific) mass spectrometer in positive ESI mode using the settings described previously[65],[66]. […] An Orbitrap Exploris 480 (Thermo Fisher Scientific) was employed for MS analysis. Spray voltage was set to 3.5 kV, funnel RF level at 40, and ion transfer tube temperature at 320 °C. Data were collected by Xcalibur (v.4.0.27.19). The orbitrap mass analyzer was used as the MS1 detector with 120,000 resolution. The normalized AGC target and maximum injection time were set at 70% /standard for MS1. The MS2 detector was used 15,000 resolution. Targeted mass setting is lactyl-CoA: 840.1436, acetyl-CoA: 810.1330 and propionate CoA: 824.1487. […] The relative intensity of acyl-CoA was analyzed by Xcalibur (v.4.0.27.19)."}, "YiaC [1]": {"tested_on": "YiaC", "assay": "YiaC lactylation/acetylation of synthetic peptide, LC-MS", "type": "biochemical, E. coli", "details": "50 μM TICHDKAFVR, 5 μM YiaC, 2 h"}, "YiaC [2]": {"tested_on": "YiaC", "assay": "Kinetic parameters of YiaC, MALDI-TOF MS", "type": "biochemical, E. coli", "details": "for kcat: peptide from PncB, MALDI-TOF MS", "protocol": "(§1) This method was described previously. […] Meanwhile, YiaC was incubated with unmodified peptide ([…], from PncB) in the YiaC reaction buffer. The concentrations of the peptides were 5, 10, 16, 32, 60, and 285 uM, and reaction time were 1, 5, 15, and 30 min. […] 0.1 μl samples mixed with 2,5-dihydroxybenzoic acid (DHB) were analyzed by MS. An acceleration voltage of 20 kV was used. MS data were analyzed using FlexAnalysis software for spectral processing and peak detection. The enzyme kinetics were analyzed by Prism GraphPad 8.0 software."}, "whole-cell lysates": {"tested_on": "whole-cell lysates", "assay": "Immunoblotting of lysine acylation in whole-cell lysates of overexpressing or deficient strains", "type": "cell-based, E. coli", "details": "immunoblot; for Kla level: overexpression in E. coli BL21 (λDE3) vs empty pET28a, LB 37 °C", "protocol": "All the anti-acyllysine antibodies were purchased from PTM Biolabs Inc. All the synthetic peptides were generated by SciLight Biotechnology, LLC. Antibodies (all diluted 1:1000) and other reagents are listed in Supplementary Data 7.\nThis method was performed as described previously. In detail, plasmids were constructed to express proteins in E. coli. We used pEASY®-Basic Seamless Cloning and Assembly Kit (TRANS) to construct the plasmids of pET28a-cisY, pET28a-pncB, pET28a-gpmA, pET28a-mdh, pET28a-pykF, and pBR322-pykF-His tag. For mutation, we used the Fast Mutagenesis System (TRANS) to construct the vectors containing point mutated genes. All primers used for PCR are listed in Supplementary Data 7. The constructed vectors of pET28a were transformed into E. coli BL21 (λDE3) for overexpressing strains. The constructed vectors of pBR322 were transformed into E. coli MG1655 and cultured in LB medium containing ampicillin (Amp, 50 μg ml^–1), at 37 °C in shaken flasks at 220 rpm. overnight.\nNext, cells were induced with 0.05 mM IPTG at 16 °C overnight followed by harvesting of whole-cell lysates for immunoblotting or protein purification. The proteins were harvested from cultured cells by lysis buffer (20 mM Tris-HCl, pH 8.0, 10 mM MgCl2, 1 mg ml^–1 lysozyme, 50 U ml^–1 nuclease). Then the proteins were mixed with HisPur Ni-NTA Resin and washed by wash buffer (20 mM Na3PO4, 300 mM NaCl, 25 mM imidazole, pH 7.4), the overexpressed proteins were eluted with elution buffer (20 mM Na3PO4, 300 mM NaCl, 250 mM imidazole, PH 7.4). The elution was collected and concentrated using an Amicon Ultra-0.5 Centrifugal Filter Device in storage buffer (100 mM HEPES, 10 mM MgCl2, 7.7 mM KCl, pH 7.0)."}, "GltA, PncB": {"tested_on": "GltA, PncB", "assay": "Lactylation reaction of recombinant proteins by YiaC, immunoblotting", "type": "biochemical, E. coli", "details": "15 μM YiaC, 20 μM substrate, lactyl-CoA 1 mM, 25 °C, 10 h"}, "CobB [3]": {"molecular_target": "T1, CobB (Escherichia coli, UniProt P75960)", "T1 sequence (P75960 1-279)": "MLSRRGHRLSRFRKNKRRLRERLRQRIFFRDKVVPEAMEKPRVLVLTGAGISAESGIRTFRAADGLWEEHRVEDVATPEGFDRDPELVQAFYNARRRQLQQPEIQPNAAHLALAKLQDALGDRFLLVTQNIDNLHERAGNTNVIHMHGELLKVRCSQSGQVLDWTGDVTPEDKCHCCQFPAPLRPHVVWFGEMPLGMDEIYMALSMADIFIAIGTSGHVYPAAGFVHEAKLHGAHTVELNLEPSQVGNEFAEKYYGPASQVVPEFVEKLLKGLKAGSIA", "details": "for kcat: 37 °C, MALDI-TOF MS, mean ± SEM; for kcat / kcat/Km: n = 3", "protocol": "as §1"}, "PykF, GpmA, Mdh": {"tested_on": "PykF, GpmA, Mdh", "details": "15 μM CobB, 20 μM substrate, 25 °C, 10 h", "protocol": "The purified recombinant YiaC (15 μM) and candidate substrate proteins (GltA, PncB, 20 μM) were incubated in YiaC reaction buffer at 25 °C for 10 h. […] The reaction products were analyzed by Western blotting with anti-lactylation."}, "CobB [4]": {"molecular_target": "T1, CobB", "details": "50 μM peptide, 1 μM CobB, pH 8.5, 37 °C, 2 h; with 1 mM NAD^+ unless stated"}, "PykF": {"tested_on": "PykF", "details": "in vitro; result in words"}, "[5]": {"details": "overexpression in E. coli BL21 (λDE3) vs pET28a"}, "[6]": {"details": "Deacetylation, Michaelis-Menten best fit, Supplementary Data 2"}, "[7]": {"details": "deacetylation, AETAEK(ac)YGDEQVK"}, "[8]": {"details": "delactylation, AETAEK(la)YGDEQVK"}}, "note": "Entries after “also recorded” stand apart in the source; their conditions may differ. Where two headings read alike, the source gives them in different places.", "data": [{"molecule": "B1", "values": [{"measurement": "formation of lactyl-CoA from lactate", "setting": "PrpE", "value": "neither Acs nor PrpE could catalyze the formation of lactyl-CoA from lactate"}]}, {"molecule": "B2", "values": [{"measurement": "lactylation of peptide by YiaC", "setting": "YiaC [1]; 0.1 mM lactyl-CoA, pH 7, 37 °C", "value": "can catalyze lactylation in vitro"}, {"measurement": "lactylation compared with acetylation by YiaC", "setting": "YiaC [1]; 37 °C", "value": "likely more efficient for lactylation"}, {"measurement": "Vmax", "setting": "YiaC [2]; Acetylation, Michaelis-Menten best fit, Supplementary Data 2", "value": 0.005773}, {"measurement": "Km", "setting": "YiaC [2]; Acetylation, Michaelis-Menten best fit, Supplementary Data 2, read-out: Km", "value": 28.7, "unit": "µM"}, {"measurement": "Vmax", "setting": "YiaC [2]; Lactylation, Michaelis-Menten best fit, Supplementary Data 2", "value": 0.01667}, {"measurement": "Km", "setting": "YiaC [2]; Lactylation, Michaelis-Menten best fit, Supplementary Data 2, read-out: Km", "value": 26.6, "unit": "µM"}, {"measurement": "kcat/Km", "setting": "YiaC [2]; acetylation, n = 3", "value": 8000, "unit": "M⁻¹ s⁻¹"}, {"measurement": "Km", "setting": "YiaC [2]; acetylation, peptide from PncB 5-285 μM, mean ± SEM, n = 3, read-out: Km for peptide", "value": "28.7 ± 1.2", "unit": "µM"}, {"measurement": "kcat", "setting": "YiaC [2]; acetylation, mean ± SEM, n = 3", "value": "0.23 ± 0.04", "unit": "s⁻¹"}, {"measurement": "kcat/Km", "setting": "YiaC [2]; lactylation, n = 3", "value": 36000, "unit": "M⁻¹ s⁻¹"}, {"measurement": "Km", "setting": "YiaC [2]; lactylation, peptide from PncB 5-285 μM, mean ± SEM, n = 3, read-out: Km for peptide", "value": "26.6 ± 1.1", "unit": "µM"}, {"measurement": "kcat", "setting": "YiaC [2]; lactylation, mean ± SEM, n = 3", "value": "0.97 ± 0.03", "unit": "s⁻¹"}, {"measurement": "Kla level", "setting": "whole-cell lysates", "value": "extensive and obvious increase in Kla levels"}, {"measurement": "Kac level", "setting": "whole-cell lysates; [5]", "value": "could upregulate Kac"}, {"measurement": "succinylation level", "setting": "whole-cell lysates; [5]", "value": "did not cause a change in succinylation"}, {"measurement": "lactylation of candidate proteins", "setting": "GltA, PncB", "value": "can effectively lactylate citrate synthase (GltA) and nicotinate phosphoribosyltransferase (PncB)"}]}, {"molecule": "B3", "values": [{"measurement": "Km", "setting": "CobB [3]; [6]", "value": 25.4, "unit": "µM"}, {"measurement": "Vmax", "setting": "CobB [3]; [6]", "value": 0.01822}, {"measurement": "Vmax", "setting": "CobB [3]; Delactylation, Michaelis-Menten best fit, Supplementary Data 2", "value": 0.02447}, {"measurement": "kcat", "setting": "CobB [3]; [7]", "value": "0.97 ± 0.02", "unit": "s⁻¹"}, {"measurement": "kcat/Km", "setting": "CobB [3]; [7]", "value": 52000, "unit": "M⁻¹ s⁻¹"}, {"measurement": "kcat", "setting": "CobB [3]; [8]", "value": "0.99 ± 0.04", "unit": "s⁻¹"}, {"measurement": "kcat/Km", "setting": "CobB [3]; [8]", "value": 39000, "unit": "M⁻¹ s⁻¹"}, {"measurement": "Kla level", "setting": "whole-cell lysates", "value": "significant decrease in Kla levels"}, {"measurement": "delactylation of candidate proteins", "setting": "PykF, GpmA, Mdh", "value": "can clearly delactylate pyruvate kinase I (PykF), 2,3-bisphosphoglycerate-dependent phosphoglycerate mutase (GpmA) and malate dehydrogenase (Mdh) in vitro"}, {"measurement": "delactylation of peptide by CobB", "setting": "CobB [4]", "value": "efficiently catalyzed the hydrolysis of the lactyl peptide in the presence of NAD^+; also recorded: the delactylated peptide was not detected in the reaction without NAD^+"}, {"measurement": "PykF activity after CobB erasing K382la", "setting": "PykF", "value": "enhanced PykF activity in vitro"}]}]}
